# Measured values published in patent US20230382948A1, “DELIVERY OF ENDOTHELIAL CELL-LADEN MICROGEL ELICITS ANGIOGENESIS IN SELF-ASSEMBLING ULTRASHORT PEPTIDE HYDROGELS” (KING ABDULLAH UNIVERSITY OF SCIENCE AND TECHNOLOGY, priority 2020, published 2023).
# What was measured:
# [1] = Microgel fabrication by flow-focusing microfluidics, microgel imaging (diameter, roundness); format: physicochemical; conditions: for Microgel average diameter: SUP solution 1.5 wt %, oil with Span 80 (2%) and sodium chloride
# Procedure: Since the microgels are intended to be cell carriers, the fabrication materials were sterilized before use when possible and handled aseptically inside a biosafety cabinet (BSC) to reduce contamination risk. Milli-Q® water and hexadecane were sterilized by autoclaving at 121° C. for 20 min. Light mineral oil was sterilized by dry heating at 160° C. for 1 h. Peptide powder and sodium chloride were sterilized by UV irradiation (GE® germicidal lamp 30 W) for 30 min inside BSC. Once sterile, the peptide powder was dissolved to 27.1 mM (15 mg/mL) in sterile Milli-Q® water by vortexing for 5 min and incubated at room temperature (22° C.) for 1 h (preassembly). Span 80 was dissolved to 2% (v/v) into light mineral oil and hexadecane, independently. Sodium chloride was added to the light mineral oil+Span 80 mix and shaked to disperse the sodium chloride crystals. The peptide solution was loaded in a 1 mL syringe, while the light mineral oil with Span 80 2% (v/v) and sodium chloride 3 mg/mL were loaded in a 3 mL syringe. Both syringes were connected with the microfluidic system, and both solutions were brought to the droplet generator point by pressing the syringes manually. Then, both syringes were inserted into the pumps, and the flow rate was set at 10 μL/min for continuous phase (light mineral oil with Span 80 and sodium chloride) and 1 μL/min for dispersed phase (peptide solution). Droplet generation was monitored by on-site bright-field microscopy, and once it was stable and continuous, the droplets were collected in a tube containing light mineral oil with Span 80 2% (v/v). To confirm peptide droplet gelation, FluoSpheres® or QD were sometimes incorporated into the peptide solution during the preassembly incubation. Microgels were isolated from oil adding the same volume of hexadecane containing Span 80 (2% v/v) and centrifuged at 10 g for 5 min, and the oil layer was discarded. Microgels were washed with hexadecane plus Span 80 (2% v/v) two more times, discarding the hexadecane layer. A volume of DPBS containing Tween 20 (10% v/v) was gently added on the microgels through the collection tube walls and removed after 5 min. DPBS—Tween 20 washing was repeated 2 more times, decreasing the Tween 20 content to 1% v/v and 0.1% v/v sequentially. Finally, 250μL of DPBS was added on the microgels to keep them soaked, and they were kept on a shelf (22° C.) until further use. The microgel shape and size were checked by confocal laser scanning microscopy (CLSM).
# Microgel imaging was done at each condition and time point using a CLSM Zeiss® 710 or 880 by tile scanning with 15% overlapping and online stitching to capture as many microgels as possible from the dish. The Feret diameter and roundness of each microgel was calculated using ImageJ software by manually drawing up to 59 microgel contours per condition. All statistical data analysis and microgel descriptor plotting were conducted in Origin software. To assess the effect of the treatments on the microgel diameter and roundness, a Kruskal—Wallis test with Posthoc test pairwise Mann—Whitney U tests was applied.
# pH of peptide solutions = format: physicochemical; conditions: for pH of the peptide solution: 5 mg/mL in Milli-Q water; for pH of the peptide solution after the addition of PBS: 5 mg/mL
# Procedure: The preweighed (as per the required final concentration) peptide powder was dissolved in 0.9 mL of Milli-Q® water in a glass vial. The solution was vortexed for 5-10 s to obtain a clear and homogeneous solution. To this peptide solution, 0.1 mL of PBS buffer (10×, w/o Ca^2+ and Mg^2+) was added. To ensure a homogeneous distribution of buffer in the solution, the glass vial was further vortexed for 2-3 s. The glass vial was kept undisturbed on the bench, and hydrogel formation was observed using the vial inversion method, as shown in FIG. 9. The pH of the solutions of IVFK (SEQ ID NO. 1) and IVZK (SEQ ID NO. 2) was 5.57 and 5.48 at a 5 mg/mL concentration, respectively. After the addition of PBS, the pH changed to 7.7 and 7.6 for IVFK (SEQ ID NO. 1) and IVZK (SEQ ID NO. 2), respectively. The pH of the Milli-Q® water and phosphate buffer used was 6.7 and 7.4, respectively.
# [2] = after extraction to the aqueous phase (PBS)
Substance,Microgel swelling on extraction from the oil phase to the aqueous phase [1],Microgel average diameter [1] [μm],"Microgel roundness, average [1, 2]","Microgel roundness, average ([1]; in oil)",pH of the peptide solution (pH of peptide solutions),pH of the peptide solution after the addition of PBS (pH of peptide solutions),Minimum concentration with many intact microgels after isolation in the aqueous phase [1] [wt %]
"Ac-Ile-Val-Cha-Lys-NH2 (IVXK; HELM PEPTIDE1{[ac].I.V.[Cha].K.[am]}$$$$V2.0; SMILES CC[C@H](C)[C@H](NC(C)=O)C(=O)N[C@H](C(=O)N[C@@H](CC1CCCCC1)C(=O)N[C@@H](CCCCN)C(N)=O)C(C)C) [IVZK, self-assembling ultrashort tetrapeptide, Z = cyclohexylalanine, forms hydrogels and microgels]",not,350,0.88,0.98,5.48,7.6,–
"Ac-Ile-Val-Phe-Lys-NH2 (Ac-IVFK-NH2) [self-assembling ultrashort tetrapeptide, forms hydrogels and microgels]",50 μm,300,0.88,0.98,5.57,7.7,0.8
